# In patent US20200115416A1 (REGENTS OF THE UNIVERSITY OF MINNESOTA, published 2020):
# Square brackets hold non-standard residues; d marks the D form.
# B1: c[Pro-Arg-Phe-Phe-Asn-Ala-Gly-DPro] (peptide)
# peptide: cyclo(PRFFNAG[dP])
# B2: c[Pro-Arg-Phe-Phe-Asn-Ala-Ser-DPro] (peptide)
# peptide: cyclo(PRFFNAS[dP])
# B3: c[Pro-Arg-DPhe-DPhe-Dap-Ala-Phe-DPro] (peptide)
# peptide: PRFFXAFP
# modifications: head-to-tail cyclic; DPhe at 3 and 4; Dap at 5; DPro at 8
# B4: c[Pro-DArg-DPhe-Phe-Dap-Ala-Phe-DPro] (peptide)
# peptide: PRFFXAFP
# modifications: head-to-tail cyclic; DArg at 2; DPhe at 3; Dap at 5; DPro at 8
# B5: c[Pro-DArg-Phe-Phe-Dap-Ala-Phe-DPro] (peptide)
# peptide: PRFFXAFP
# modifications: head-to-tail cyclic; DArg at 2; Dap at 5; DPro at 8
# B6: c[Pro-DArg-Phe-DPhe-Dap-Ala-Phe-DPro] (peptide)
# peptide: PRFFXAFP
# modifications: head-to-tail cyclic; DArg at 2; DPhe at 4; Dap at 5; DPro at 8
# B7: c[Pro-Arg-DPhe-Phe-Dap-Ala-Phe-DPro] (peptide)
# peptide: PRFFXAFP
# modifications: head-to-tail cyclic; DPhe at 3; Dap at 5; DPro at 8
# B8: c[Pro-Arg-Phe-DPhe-Dap-Ala-Phe-DPro] (peptide)
# peptide: PRFFXAFP
# modifications: head-to-tail cyclic; DPhe at 4; Dap at 5; DPro at 8
# B9: c[Pro-DArg-DPhe-DPhe-Dap-Ala-Phe-DPro] (peptide)
# peptide: PRFFXAFP
# modifications: head-to-tail cyclic; DArg at 2; DPhe at 3 and 4; Dap at 5; DPro at 8
# Target: T1, mouse melanocortin-1 receptor (mouse, UniProt Q01727 1-315)
# Assay: cell-based or functional assay
# T1 sequence (Q01727 whole entry): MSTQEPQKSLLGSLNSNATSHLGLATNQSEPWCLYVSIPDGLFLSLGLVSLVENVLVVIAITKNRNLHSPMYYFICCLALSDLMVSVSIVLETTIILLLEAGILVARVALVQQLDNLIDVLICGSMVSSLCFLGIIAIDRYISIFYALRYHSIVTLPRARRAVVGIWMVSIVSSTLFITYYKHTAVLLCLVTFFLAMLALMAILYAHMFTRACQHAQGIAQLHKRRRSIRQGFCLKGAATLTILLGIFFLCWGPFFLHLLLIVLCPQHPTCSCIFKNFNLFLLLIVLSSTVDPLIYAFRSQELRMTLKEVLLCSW
row,% activation at 100 µM (cAMP AlphaScreen) [%],Binder
1,60,B1
2,35,B2

# Target: T2, mouse melanocortin-5 receptor (mouse, UniProt P41149 1-325)
# Assay: cell-based or functional assay
# T2 sequence (P41149 whole entry): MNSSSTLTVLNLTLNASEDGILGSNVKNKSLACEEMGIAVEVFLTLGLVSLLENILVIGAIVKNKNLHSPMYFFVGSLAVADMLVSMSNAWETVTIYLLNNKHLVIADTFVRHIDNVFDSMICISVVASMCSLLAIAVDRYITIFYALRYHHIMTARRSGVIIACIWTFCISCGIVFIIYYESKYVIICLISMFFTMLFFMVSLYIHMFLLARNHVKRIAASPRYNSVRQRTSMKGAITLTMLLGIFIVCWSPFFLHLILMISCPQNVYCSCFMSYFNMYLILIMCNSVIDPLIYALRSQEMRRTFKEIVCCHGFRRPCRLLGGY
row,"inverse agonist, % change from basal cAMP at 100 µM [%]",Binder
1,-25,B1
2,-55,B2

# Target: mouse melanocortin-3 receptor (mouse, UniProt P33033 1-323)
# Assay: cell-based or functional assay
# mouse melanocortin-3 receptor, sequence (P33033 whole entry): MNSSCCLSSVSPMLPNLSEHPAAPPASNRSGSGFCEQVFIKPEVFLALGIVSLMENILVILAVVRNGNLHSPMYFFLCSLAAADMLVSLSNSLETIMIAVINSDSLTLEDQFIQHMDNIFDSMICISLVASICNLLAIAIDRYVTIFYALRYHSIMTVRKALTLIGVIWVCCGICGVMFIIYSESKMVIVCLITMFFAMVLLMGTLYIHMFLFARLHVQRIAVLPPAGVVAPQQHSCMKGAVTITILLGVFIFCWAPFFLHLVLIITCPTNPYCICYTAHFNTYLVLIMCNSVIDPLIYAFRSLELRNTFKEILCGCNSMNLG
agonist EC50 (cAMP AlphaScreen) [µM],"antagonist pA2 (Schild, agonist NDP-MSH)",% maximal NDP-MSH response at 100 µM (cAMP AlphaScreen) [%],Binder
> 100,5.7,,B3
> 100,6,,B4
,5.7,25,B5
> 100,5.7,,B6
> 100,5.92,,B7
> 100,< 5.5,,B8
> 100,< 5.5,,B9

# Target: T1, mouse melanocortin-1 receptor
# Assay: cell-based or functional assay
# Remark: another data set of the same source
agonist EC50 (cAMP AlphaScreen) [µM],"partial agonist efficacy, % of NDP-MSH [%]",% maximal NDP-MSH response at 100 µM (cAMP AlphaScreen) [%],Binder
0.7,,,B3
0.8,70,,B4
,,25,B5
0.45,70,,B6
0.23,,,B7
0.8,75,,B8
2.2,60,,B9

# Target: T2, mouse melanocortin-5 receptor
# Assay: cell-based or functional assay
# Remark: another data set of the same source
agonist EC50 (cAMP AlphaScreen) [µM],"inverse agonist, % change from basal cAMP at 100 µM [%]",Binder
> 100,,B3
,-30,B4
> 100,,B5
,-20,B6
> 100,,B7
> 100,,B8
,-15,B9

# Target: mouse melanocortin-4 receptor (mouse, UniProt P56450 1-332)
# Assay: cell-based or functional assay
# mouse melanocortin-4 receptor, sequence (P56450 whole entry): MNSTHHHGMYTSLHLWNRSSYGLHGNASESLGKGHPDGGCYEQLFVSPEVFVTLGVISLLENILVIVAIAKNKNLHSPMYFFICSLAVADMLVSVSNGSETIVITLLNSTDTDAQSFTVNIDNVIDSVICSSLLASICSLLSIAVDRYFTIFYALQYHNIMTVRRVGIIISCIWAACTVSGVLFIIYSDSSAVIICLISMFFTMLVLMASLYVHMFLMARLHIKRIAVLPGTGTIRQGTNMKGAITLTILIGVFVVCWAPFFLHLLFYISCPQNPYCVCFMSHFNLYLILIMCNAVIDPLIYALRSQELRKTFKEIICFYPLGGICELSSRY
row,% maximal NDP-MSH response at 100 µM (cAMP AlphaScreen) [%],Binder
1,25,B5
2,20,B7
